From the supplement of paper PMC11246515 come the findings set out here.

± gives the standard deviation of the averaged measurements.

The nature of this data set: total protein half-life in vivo (active degradation + dilution); higher = more stable protein.
Setting [1] is: E. coli NCM3722 delta-clpP delta-lon delta-hslV, growth: N-lim chemostat, doubling time 6 h.
Setting [2] is: E. coli NCM3722 delta-hslV, growth: N-lim chemostat, doubling time 6 h.
Where [3] appears, read: E. coli NCM3722 delta-lon, growth: N-lim chemostat, doubling time 6 h.
Where [4] appears, read: E. coli NCM3722 delta-smpB, growth: N-lim chemostat, doubling time 6 h.
Where [5] appears, read: wild type E. coli NCM3722, growth: C-lim chemostat, doubling time 3 h.
Setting [6] is: wild type E. coli NCM3722, growth: C-lim chemostat, doubling time 6 h.
[7] abbreviates: wild type E. coli NCM3722, growth: C-lim chemostat, doubling time 12 h.
The mark [8] stands for this setting: wild type E. coli NCM3722, growth: N-lim chemostat, doubling time 6 h.
The mark [9] stands for this setting: wild type E. coli NCM3722, growth: N-lim chemostat, doubling time 12 h.
[10] abbreviates: wild type E. coli NCM3722, growth: P-lim chemostat, doubling time 6 h.
Where [11] appears, read: wild type E. coli NCM3722, growth: P-lim chemostat, doubling time 12 h.
Where [12] appears, read: E. coli NCM3722 delta-clpP, growth: N-lim chemostat, doubling time 6 h.

As to “MSQDPFQEREAEKYANPIPSREFILEHLTKREKPASRDELAVELHIEGEEQLEGLRRRLRAMERDGQLVFTRRQCYALPERLDLVKGTVIGHRDGYGFLRVEGRKDDLYLSSEQMKTCIHGDQVLAQPLGADRKGRREARIVRVLVPKTSQIVGRYFTEAGVGFVVPDDSRLSFDILIPPDQIMGARMGFVVVVELTQRPTRRTKAVGKIVEVLGDNMGTGMAVDIALRTHEIPYIWPQAVEQQVAGLKEEVPEEAKAGRVDLRDLPLVTIDGEDARDFDDAVYCEKKRGGGWRLWVAIADVSYYVRPSTPLDREARNRGTSVYFPSQVIPMLPEVLSNGLCSLNPQVDRLCMVCEMTVSSKGRLTGYKFYEAVMSSHARLTYTKVWHILQGDQDLREQYAPLVKHLEELHNLYKVLDKAREERGGISFESEEAKFIFNAERRIERIEQTQRNDAHKLIEECMILANISAARFVEKAKEPALFRIHDKPSTEAITSFRSVLAELGLELPGGNKPEPRDYAELLESVADRPDAEMLQTMLLRSMKQAIYDPENRGHFGLALQSYAHFTSPIRRYPDLTLHRAIKYLLAKEQGHQGNTTETGGYHYSMEEMLQLGQHCSMAERRADEATRDVADWLKCDFMLDQVGNVFKGVISSVTGFGFFVRLDDLFIDGLVHVSSLDNDYYRFDQVGQRLMGESSGQTYRLGDRVEVRVEAVNMDERKIDFSLISSERAPRNVGKTAREKAKKGDAGKKGGKRRQVGKKVNFEPDSAFRGEKKTKPKAAKKDARKAKKPSAKTQKIAAATKAKRAAKKKVAE”, the “total protein half-life in vivo” value was 6.54 ± 0.13 h under setting [1]; 5.66 ± 0.29 h under setting [2]; 5.87 ± 0.12 h under setting [3]; 5.35 ± 0.14 h under setting [4]; 3.06 ± 0.13 h under setting [5]; 6.06 ± 0.13 h under setting [6]. Also, the “total protein half-life in vivo” value under setting [7] worked out at 12.1 ± 0.14 h; the “total protein half-life in vivo” value under setting [8] amounted to 5.67 ± 0.095 h; the “total protein half-life in vivo” value under setting [9] came to 9.82 ± 0.13 h; the “total protein half-life in vivo” value under setting [10] was found to be 5.679 ± 0.029 h; the “total protein half-life in vivo” value under setting [11] was found to be 11.2 ± 0.32 h.

On to “MSKPAITLWSDAHFFSPYVLSAWVALQEKGLSFHIKTIDLDSGEHLQPTWQGYGQTRRVPLLQIDDFELSESSAIAEYLEDRFAPPTWERIYPLDLENRARARQIQAWLRSDLMPIREERPTDVVFAGAKKAPLTAEGKASAEKLFAMAEHLLVLGQPNLFGEWCIADTDLALMINRLVLHGDEVPERLVDYATFQWQRASVQRFIALSAKQSG”, for which the “total protein half-life in vivo” value by setting is: under setting [1], 4.94 ± 0.39 h; under setting [12], 5.5 ± 1.7 h; under setting [2], 4.804 ± 0.025 h; under setting [3], 5.18 ± 0.9 h; under setting [4], 4.79 ± 0.39 h; under setting [5], 2.97 ± 0.081 h. Further, the “total protein half-life in vivo” value reads like this: under setting [6], 5.9 ± 0.35 h; under setting [7], 9.65 ± 1.6 h; under setting [8], 4.86 ± 0.41 h; under setting [9], 8.65 ± 0.19 h; under setting [10], 5.764 ± 0.044 h; under setting [11], 12.5 ± 0.95 h.

For “MKLSRRSFMKANAVAAAAAAAGLSVPGVARAVVGQQEAIKWDKAPCRFCGTGCGVLVGTQQGRVVACQGDPDAPVNRGLNCIKGYFLPKIMYGKDRLTQPLLRMKNGKYDKEGEFTPITWDQAFDVMEEKFKTALKEKGPESIGMFGSGQWTIWEGYAASKLFKAGFRSNNIDPNARHCMASAVVGFMRTFGMDEPMGCYDDIEQADAFVLWGANMAEMHPILWSRITNRRLSNQNVTVAVLSTYQHRSFELADNGIIFTPQSDLVILNYIANYIIQNNAINQDFFSKHVNLRKGATDIGYGLRPTHPLEKAAKNPGSDASEPMSFEDYKAFVAEYTLEKTAEMTGVPKDQLEQLAQLYADPNKKVISYWTMGFNQHTRGVWANNLVYNLHLLTGKISQPGCGPFSLTGQPSACGTAREVGTFAHRLPADMVVTNEKHRDICEKKWNIPSGTIPAKIGLHAVAQDRALKDGKLNVYWTMCTNNMQAGPNINEERMPGWRDPRNFIIVSDPYPTVSALAADLILPTAMWVEKEGAYGNAERRTQFWRQQVQAPGEAKSDLWQLVQFSRRFKTEEVWPEDLLAKKPELRGKTLYEVLYATPEVSKFPVSELAEDQLNDESRELGFYLQKGLFEEYAWFGRGHGHDLAPFDDYHKARGLRWPVVNGKETQWRYSEGNDPYVKAGEGYKFYGKPDGKAVIFALPFEPAAEAPDEEYDLWLSTGRVLEHWHTGSMTRRVPELHRAFPEAVLFIHPLDAKARDLRRGDKVKVVSRRGEVISIVETRGRNRPPQGLVYMPFFDAAQLVNKLTLDATDPLSKETDFKKCAVKLEKV”, the “total protein half-life in vivo” value was found to be 4.71 h under setting [1]; 5.32 ± 0.18 h under setting [2]; 3.56 ± 0.76 h under setting [3]; 3.46 ± 0.36 h under setting [4]; 2.03 ± 0.31 h under setting [5]; 4.52 ± 0.7 h under setting [6]. The “total protein half-life in vivo” value was 8.61 ± 1.2 h under setting [7]; 4.268 ± 0.041 h under setting [8]; 5.85 ± 2.3 h under setting [9]; 3.574 ± 0.034 h under setting [10]; greater than 16 h under setting [11].

“MLVVELIIVLLAIFLGARLGGIGIGFAGGLGVLVLAAIGVKPGNIPFDVISIIMAVIAAISAMQVAGGLDYLVHQTEKLLRRNPKYITILAPIVTYFLTIFAGTGNISLATLPVIAEVAKEQGVKPCRPLSTAVVSAQIAITASPISAAVVYMSSVMEGHGISYLHLLSVVIPSTLLAVLVMSFLVTMLFNSKLSDDPIYRKRLEEGLVELRGEKQIEIKSGAKTSVWLFLLGVVGVVIYAIINSPSMGLVEKPLMNTTNAILIIMLSVATLTTVICKVDTDNILNSSTFKAGMSACICILGVAWLGDTFVSNNIDWIKDTAGEVIQGHPWLLAVIFFFASALLYSQAATAKALMPMALALNVSPLTAVASFAAVSGLFILPTYPTLVAAVQMDDTGTTRIGKFVFNHPFFIPGTLGVALAVCFGFVLGSFML [P0ABN5]”: the “total protein half-life in vivo” value runs as follows: under setting [1], 5.71 h; under setting [12], 6.38 ± 0.28 h; under setting [4], 5.933 ± 0.026 h; under setting [5], greater than 4 h; under setting [6], 6.25 h; under setting [10], 6.8 ± 0.54 h. Further, the “total protein half-life in vivo” value under setting [11] is 12.4 ± 0.89 h.

As to “MTQANLSETLFKPRFKHPETSTLVRRFNHGAQPPVQSALDGKTIPHWYRMINRLMWIWRGIDPREILDVQARIVMSDAERTDDDLYDTVIGYRGGNWIYEWATQAMVWQQKACAEDDPQLSGRHWLHAATLYNIAAYPHLKGDDLAEQAQALSNRAYEEAAQRLPGTMRQMEFTVPGGAPITGFLHMPKGDGPFPTVLMCGGLDAMQTDYYSLYERYFAPRGIAMLTIDMPSVGFSSKWKLTQDSSLLHQHVLKALPNVPWVDHTRVAAFGFRFGANVAVRLAYLESPRLKAVACLGPVVHTLLSDFKCQQQVPEMYLDVLASRLGMHDASDEALRVELNRYSLKVQGLLGRRCPTPMLSGYWKNDPFSPEEDSRLITSSSADGKLLEIPFNPVYRNFDKGLQEITDWIEKRLC”, the “total protein half-life in vivo” value reads like this: under setting [1], 5.5 ± 0.92 h; under setting [12], 5.97 ± 1.6 h; under setting [2], 3.64 ± 0.2 h; under setting [3], 3.85 ± 0.3 h; under setting [4], 3.78 ± 0.053 h; under setting [5], 2.32 ± 0.07 h. Also, the “total protein half-life in vivo” value amounted to 3.76 ± 0.11 h under setting [6]; 4.98 ± 0.59 h under setting [7]; 3.52 ± 0.098 h under setting [8]; 5.5 ± 0.077 h under setting [9]; 4.41 ± 0.33 h under setting [10]; 7.49 ± 0.46 h under setting [11].

“MSAIAPGMILIAYLCGSISSAILVCRLCGLPDPRTSGSGNPGATNVLRIGGKGAAVAVLIFDVLKGMLPVWGAYELGVSPFWLGLIAIAACLGHIWPVFFGFKGGKGVATAFGAIAPIGWDLTGVMAGTWLLTVLLSGYSSLGAIVSALIAPFYVWWFKPQFTFPVSMLSCLILLRHHDNIQRLWRRQETKIWTKFKRKREKDPE”: the “total protein half-life in vivo” value was 6.82 h under setting [1]; 6.64 h under setting [12]; greater than 8 h under setting [2]; 7.06 h under setting [3]; 5.72 h under setting [4]; 6.29 h under setting [6]. For the same sequence, the “total protein half-life in vivo” value runs as follows: under setting [8], 6.93 ± 0.78 h; under setting [9], 9.94 h; under setting [10], 6.01 ± 0.4 h; under setting [11], 11 h.
